Data: PMC11369174, “Proteome-scale characterisation of motif-based interactome rewiring by disease mutations” (Molecular Systems Biology, 2024)

B1: O60832 (protein, UniProt O60832 1-514, looked up)
chain: MADAEVIILPKKHKKKKERKSLPEEDVAEIQHAEEFLIKPESKVAKLDTSQWPLLLKNFDKLNVRTTHYTPLACGSNPLKREIGDYIRTGFINLDKPSNPSSHEVVAWIRRILRVEKTGHSGTLDPKVTGCLIVCIERATRLVKSQQSAGKEYVGIVRLHNAIEGGTQLSRALETLTGALFQRPPLIAAVKRQLRVRTIYESKMIEYDPERRLGIFWVSCEAGTYIRTLCVHLGLLLGVGGQMQELRRVRSGVMSEKDHMVTMHDVLDAQWLYDNHKDESYLRRVVYPLEKLLTSHKRLVMKDSAVNAICYGAKIMLPGVLRYEDGIEVNQEIVVITTKGEAICMAIALMTTAVISTCDHGIVAKIKRVIMERDTYPRKWGLGPKASQKKLMIKQGLLDKHGKPTDSTPATWKQEYVDYSESAKKEVVAEVVKAPQVVAEAAKTAKRKRESESESDETPPAAPQLIKKEKKKSKKDKKAKAGLESGAEPGDGDSDTTKKKKKKKKAKEVELVSE
modifications: full-length
B2: O60934 (protein, UniProt O60934 1-754, looked up)
chain: MWKLLPAAGPAGGEPYRLLTGVEYVVGRKNCAILIENDQSISRNHAVLTANFSVTNLSQTDEIPVLTLKDNSKYGTFVNEEKMQNGFSRTLKSGDGITFGVFGSKFRIEYEPLVACSSCLDVSGKTALNQAILQLGGFTVNNWTEECTHLVMVSVKVTIKTICALICGRPIVKPEYFTEFLKAVESKKQPPQIESFYPPLDEPSIGSKNVDLSGRQERKQIFKGKTFIFLNAKQHKKLSSAVVFGGGEARLITEENEEEHNFFLAPGTCVVDTGITNSQTLIPDCQKKWIQSIMDMLQRQGLRPIPEAEIGLAVIFMTTKNYCDPQGHPSTGLKTTTPGPSLSQGVSVDEKLMPSAPVNTTTYVADTESEQADTWDLSERPKEIKVSKMEQKFRMLSQDAPTVKESCKTSSNNNSMVSNTLAKMRIPNYQLSPTKLPSINKSKDRASQQQQTNSIRNYFQPSTKKRERDEENQEMSSCKSARIETSCSLLEQTQPATPSLWKNKEQHLSENEPVDTNSDNNLFTDTDLKSIVKNSASKSHAAEKLRSNKKREMDDVAIEDEVLEQLFKDTKPELEIDVKVQKQEEDVNVRKRPRMDIETNDTFSDEAVPESSKISQENEIGKKRELKEDSLWSAKEISNNDKLQDDSEMLPKKLLLTEFRSLVIKNSTSRNPSGINDDYGQLKNFKKFKKVTYPGAGKLPHIIGGSDLIAHHARKNTELEEWLRQEMEVQNQHAKEESLADDLFRYNPYLKRRR
modifications: full-length
B3: ESPN (protein, UniProt B1AK53 1-854, looked up)
Espin: MALEQALQAARQGELDVLRSLHAAGLLGPSLRDPLDALPVHHAARAGKLHCLRFLVEEAALPAAARARNGATPAHDASATGHLACLQWLLSQGGCRVQDKDNSGATVLHLAARFGHPEVVNWLLHHGGGDPTAATDMGALPIHYAAAKGDFPSLRLLVEHYPEGVNAQTKNGATPLYLACQEGHLEVTQYLVQECGADPHARAHDGMTPLHAAAQMGHSPVIVWLVSCTDVSLSEQDKDGATAMHFAASRGHTKVLSWLLLHGGEISADLWGGTPLHDAAENGELECCQILVVNGAELDVRDRDGYTAADLSDFNGHSHCTRYLRTVENLSVEHRVLSRDPSAELEAKQPDSGMSSPNTTVSVQPLNFDLSSPTSTLSNYDSCSSSHSSIKGQHPPCGLSSARAADIQSYMDMLNPELGLPRGTIGKPTPPPPPPSFPPPPPPPGTQLPPPPPGYPAPKPPVGPQAADIYMQTKNKLRHVETEALKKELSSCDGHDGLRRQDSSRKPRAFSKQPSTGDYYRQLGRCPGETLAARPGMAHSEEVRARQPARAGCPRLGPAARGSLEGPSAPPQAALLPGNHVPNGCAADPKASRELPPPPPPPPPPLPEAASSPPPAPPLPLESAGPGCGQRRSSSSTGSTKSFNMMSPTGDNSELLAEIKAGKSLKPTPQSKGLTTVFSGIGQPAFQPDSPLPSVSPALSPVRSPTPPAAGFQPLLNGSLVPVPPTTPAPGVQLDVEALIPTHDEQGRPIPEWKRQVMVRKMQLKMQEEEEQRRKEEEEEARLASMPAWRRDLLRKKLEEEREQKRKEEERQKQEELRREKEQSEKLRTLGYDESKLAPWQRQVILKKGDIAKY
B4: FANCG (protein, UniProt O15287 1-622, looked up)
Fanconi anemia group G protein: MSRQTTSVGSSCLDLWREKNDRLVRQAKVAQNSGLTLRRQQLAQDALEGLRGLLHSLQGLPAAVPVLPLELTVTCNFIILRASLAQGFTEDQAQDIQRSLERVLETQEQQGPRLEQGLRELWDSVLRASCLLPELLSALHRLVGLQAALWLSADRLGDLALLLETLNGSQSGASKDLLLLLKTWSPPAEELDAPLTLQDAQGLKDVLLTAFAYRQGLQELITGNPDKALSSLHEAASGLCPRPVLVQVYTALGSCHRKMGNPQRALLYLVAALKEGSAWGPPLLEASRLYQQLGDTTAELESLELLVEALNVPCSSKAPQFLIEVELLLPPPDLASPLHCGTQSQTKHILASRCLQTGRAGDAAEHYLDLLALLLDSSEPRFSPPPSPPGPCMPEVFLEAAVALIQAGRAQDALTLCEELLSRTSSLLPKMSRLWEDARKGTKELPYCPLWVSATHLLQGQAWVQLGAQKVAISEFSRCLELLFRATPEEKEQGAAFNCEQGCKSDAALQQLRAAALISRGLEWVASGQDTKALQDFLLSVQMCPGNRDTYFHLLQTLKRLDRRDEATALWWRLEAQTKGSHEDALWSLPLYLESYLSWIRPSDRDAFLEEFRTSLPKSCDL

Experiments:
KPNA4 ARM = test: GenVar_HD2 ProP-PD phage selection, KPNA4 ARM; format: binding, human; conditions: bait-prey protein level, bait_accession O00629
ABL1 SH3 = ABL1 SH3 (Homo sapiens, UniProt P00519); test: GenVar_HD2 ProP-PD phage selection, ABL1 SH3; format: binding; conditions: bait domain-prey protein level, bait ABL1_SH3__P00519_60_121
Chain of ABL1 SH3 (P00519 60-121): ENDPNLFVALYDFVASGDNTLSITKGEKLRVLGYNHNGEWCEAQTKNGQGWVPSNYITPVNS

Molecule | max_promiscuity (KPNA4 ARM) | max_specificity (KPNA4 ARM) | max_promiscuity (ABL1 SH3) | max_specificity (ABL1 SH3)
B1 | 3 | 1 |  | 
B2 | 1 | 1 |  | 
B3 |  |  | 2 | 0.8421
B4 |  |  | 5 | 1
